The values that follow come from patent US20050272107A1 (MEDICAL RESEARCH COUNCIL, published 2005).

As usually defined, the koff is the rate constant with which the complex falls apart. A higher koff goes with a short-lived complex. One may read the kon as the second-order rate constant of association. A higher kon goes with fast association. For orientation: Kd means the free concentration of one partner at which half of the binding sites on the other are occupied at equilibrium, for simple one-to-one binding.

For assay [1], the target named is RAS antigen of the BIAcore measurements. Nature of the assay: SPR, BIAcore 2000. On the technique in general: In SPR one partner is held on a chip, and binding of the other changes the refractive index at the surface.
Assay [2] shares this target. The assay is described as follows: SPR, BIAcore 2000; Kd = koff/kon.

B1: anti-RAS scFv33 (scFv)
chain: QVQLVEAGGGLVQPGGSLRLSCAASGFSFSTFSMNWVRQAPGKGLEWVSYISSSGRTIYYADSVKGRFTISRDNAKNSLYLQMNSLRDEDTAVYYCARGRFFDYWGQGTLVTVSSGGGGSGGGGSGGGGSDIVMTQSPSFLSASVGDRVTITCRASQSISRYLNWYQQKPGKAPKLLIYAASSLQSGVPSRFSGSGSGTDFTLTISSLQPEDFAIYYCQQSYSTLLTFGGGTKLEIKR
Consider B1, for which, in assay [1], the koff is 0.00113 s⁻¹ and the kon stood at 176000 M⁻¹ s⁻¹. In addition, in assay [2], the Kd was found to be 9.97 nM.
